Measurements from patent US20250346673A1 (DUALITY BIOLOGICS SUZHOU, published 2025).
Changes are numbered by the printed parent chain.

B1: mab019c (antibody, V domains shown)
VH: EVKLVESGGDLVQPGGSLKLSCAASGFTFSDYYMYWVRQTPEKRLEWVAYISYSGDSTYYPDTVKGRFTISRDNAKNTLFLQMSRLKSEDTAMYYCARHSPSFPYYFDYWGQGTALTVSS
VL: EIVLTQSPAITAASLGQKVTITCSASSSVSYMHWYQQKSGTSPKPWIYEISKLASGVPARFSGSGSGTSYSLTISSMEAEDAAIYYCQLWNYPLITFGGGTNLEIK
B2: mAb019 (antibody, V domains shown)
VH: B1 VH
VL: B1 VL
notes: Mouse hybridoma antibody
B3: mab020c (antibody, V domains shown)
VH: DVQLQESGPGLVKPSQSLSLTCSVTGYSIASGYYWNWIRQFPGNKLEWMGYISFDGTYNYNPSLKDRFSITRDTSKNQFFLKLNSVTTEDTATYYCARGVDYPNAIDWWGQGTSVTVSS
VL: DIVLTQSPASLAVSLGQRATISCRASESVSMHVTHLIHWYQQKPGQPPKLLIYVASNLESGVPARFSGSGSETDFTLNIHPVEEEDAATYFCQQSFEDPWTFGGGTKLEIK
B4: mab024c (antibody, V domains shown)
VH: EVQLVESGGDLVKPGGSLKLSCAASGFTFSSFGMSWVRQTPDKRLDWVATISSGDSYTYYPDSVKGRFSISRDNAKNTLYLQMSSLKSEDTAVYYCARQIYYDYAYYFDYWGQGTTLTVSS
VL: B3 VL with M31F, H32R, V33S, T34S, I37M, Q41R, V54A, T89A, F96I, W100P
B5: mab022c (antibody, V domains shown)
VH: B3 VH with A30T, N104K, I106M
VL: B3 VL
B6: mab021c (antibody, V domains shown)
VH: DVQLQESGPGLVKPSQSLSLTCSVTGYSITSAYYWNWIRQFPGNKLECMGYITYDGNNYYSPSLKNRISITRDTSKNQFFLNLNSVTTEDTATYFCARGGDYDDGGFAFWGQGTLVTVSA
VL: DIQMTQSPASLSASVGETVTITCRASGNIHNYLAWYHQKQGKSPQLLVYNAKSLVDGVPSRFSGSGSGTQYSLRINSLQPEDFGSYYCQHFWIVPYTFGGGTKLEII
B7: mAb021 (antibody, V domains shown)
VH: B6 VH
VL: B6 VL
notes: Mouse hybridoma antibody
B8: mab027c (antibody, V domains shown)
VH: B6 VH with I38V, K45Q, N57S, Y59N, S61N, N82K, F95Y, A97V, F109Y
VL: B6 VL with H37Q, S53T, Q70E, R74K, S85I, Y87F, V94I, I107R

Tests used:
human BDCA2 [1] = molecular target: T1, human BDCA2 (human, UniProt Q8WTT0 1-213); test: cell-based or functional assay
T1 sequence (looked up): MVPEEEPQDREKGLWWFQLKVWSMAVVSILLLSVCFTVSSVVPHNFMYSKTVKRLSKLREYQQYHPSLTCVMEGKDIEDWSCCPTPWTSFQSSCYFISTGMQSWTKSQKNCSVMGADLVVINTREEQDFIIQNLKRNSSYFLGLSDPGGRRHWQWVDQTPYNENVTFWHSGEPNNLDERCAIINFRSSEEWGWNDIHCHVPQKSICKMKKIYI

human BDCA2 [2] = molecular target: T1, human BDCA2; test: FACS on CHOK1-hBDCA2 cells; EC50 table beside the plot, unit from the x axis (nM) [continued) c.]
Protocol: The cells were recovered and resuspended to 2×10⁶/mL with FACS buffer (PBS+2% FBS). The cells were added to 3799 cell plates (Corning) at 100 μL/well, and the supernatant was discarded after centrifugation at 300 g. The antibodies were serially diluted with FACS buffer (Id.), the diluted antibodies were added to centrifuged cells and the cells were resuspended. The cells were incubated at 4° C. for 1 h. The incubated cells were centrifuged at 300 g for 5 min and washed twice with FACS buffer. 100 μL […] anti-Human IgG (H+L) Cross-Adsorbed Secondary Antibody-Alexa Fluor 488 (Sigma, A11013; 1:1000) secondary antibody was added, washed twice with FACS buffer after incubation at 4° C. for 1 h, resuspended with PBS, analyzed with FACS (BD FACS CantoTM II) instrument and curve fitted with GraphPad Prism6, and EC₅₀ values were calculated.

cynomolgus BDCA2 = molecular target: T2, cynomolgus BDCA2 (cynomolgus monkey, UniProt A0A2K5UWP4 1-212); test: FACS on 293F-cynoBDCA2 cells; EC50 table under the plot, unit from the x axis (nM) [continued) d.]
T2 construct: whole, on cells; also called Cyno BDCA2; cynoBDCA2
T2 sequence: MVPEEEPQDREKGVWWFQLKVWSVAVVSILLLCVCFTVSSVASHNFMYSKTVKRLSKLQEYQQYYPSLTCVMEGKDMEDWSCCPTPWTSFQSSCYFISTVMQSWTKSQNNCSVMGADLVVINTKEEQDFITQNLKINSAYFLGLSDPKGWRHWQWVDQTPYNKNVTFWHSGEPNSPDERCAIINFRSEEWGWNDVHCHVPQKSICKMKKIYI
Protocol: (§1) The cells were recovered and resuspended to 2×10⁶/mL with FACS buffer (PBS+2% FBS). The cells were added to 3799 cell plates (Corning) at 100 μL/well, and the supernatant was discarded after centrifugation at 300 g. The antibodies were serially diluted with FACS buffer (Id.), the diluted antibodies were added to centrifuged cells and the cells were resuspended. The cells were incubated at 4° C. for 1 h. The incubated cells were then centrifuged at […] for 5 min and washed twice with FACS buffer. 100 μL Donkey anti-Mouse IgG (H+L) Highly Cross-Adsorbed Secondary Antibody-Alexa Fluor 488 (Invitrogen, A21202; 1:1000) secondary antibody was added to the cells, which were washed twice with FACS buffer after incubation at 4° C. for 1 h, resuspended with PBS, analyzed with FACS (BD FACS CantoTM II) instrument. The curve was fitted with GraphPad Prism6, and EC₅₀ values were calculated.

human BDCA2 [3] = molecular target: T1, human BDCA2; test: FACS on CHOK1-hBDCA2 cells; EC50 table under the plot, unit from the x axis (nM) [continued) d.]
Protocol: as §1

| Binder | IC50, inhibition of IFNα secretion, CpG-A stimulated human PBMC (human BDCA2 [1]) [nM] | EC50 (human BDCA2 [2]) [nM] | IC50 for inhibiting cytokine IFNα release, CpG-A stimulated human PBMC (human BDCA2 [1]) [nM] | EC50 (cynomolgus BDCA2) [nM] | EC50 (human BDCA2 [3]) [nM] |
| --- | --- | --- | --- | --- | --- |
| B1 | 0.0149 | 5.17 | – | – | – |
| B2 | – | – | 0.00332 | 0.485 | 0.271 |
| B3 | 0.0185 | 0.831 | – | – | – |
| B4 | 0.0168 | 0.549 | – | – | – |
| B5 | 0.0324 | 0.939 | – | – | – |
| B6 | 0.0127 | 0.479 | – | – | – |
| B7 | – | – | 0.00405 | 0.566 | 0.328 |
| B8 | 0.00898 | 0.443 | – | – | – |
